Biological target: porcine brain tubulin (microtubules) (porcine)
Assay: microtubule-capping assay with TIRF microscopy; Taxol-, docetaxel- or GMPCPP-stabilized microtubules held on the coverslip through biotin–neutravidin; γ-TuC (GCP3–GFP) in solution; 5 µM tubulin, 50 mM KCl, MRB80, 30 °C; capped if γ-TuC stayed bound for at least 2 min

γ-tubulin-containing complexes (complete and incomplete γ-TuRC) purified using GCP3–GFP–SII (from UniProt Q96CW5 1-907; Q9BSJ2 1-902; Q9UGJ1 1-667; Q96RT8 1-1024; Q96RT7 1-1819; P23258 1-451)
capping efficiency (percent of minus ends capped by γ-TuC): 30 to 60%
